The supplement of paper PMC7125110
± gives the standard error. For part of these data: This sample holds only a part of the variants without activity.

B1: glmS ribozyme (parent)
chain: AUAAAAGCGCCAGAACUACAGAAAUGUAGUUGACGAGGAGGAGGUUUAUCGAAUUUUCGGCGGAUGCCUCCAAA

Experiments:
Settings in all cases: with glucosamine-6-phosphate
glucosamine-6-phosphate [1] = variants of: B1; test: kcat; higher = faster cleavage; RNA array
Method in brief: (§1)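 Using a hybridised Cy3 probe at 37 °C, barcoded ribozyme variants transcribed in situ by E. coli RNA polymerase on sequenced MiSeq chips were monitored across tiles imaged over ~14 h. The flow contained glucosamine-6-phosphate from 40 μM to 10 mM in HEPES/KCl/Mg(OAc)2 buffer. Signals were normalised to baseline and to non-cleaving reference variants before per-tile medians were fit to one- or two-exponential decays to yield kobs. Weighted Michaelis–Menten fits across concentrations gave kcat and KM.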

glucosamine-6-phosphate [2] = variants of: B1; test: KM; higher = weaker cofactor use; RNA array
Method in brief: as §1

glucosamine-6-phosphate [3] = variants of: B1; test: self-cleavage kobs at 640 uM GlcN6P; higher = faster cleavage; RNA array
Method in brief: as §1

glucosamine-6-phosphate [4] = variants of: B1; test: self-cleavage kobs at 2500 uM GlcN6P; higher = faster cleavage; RNA array
Method in brief: as §1

glucosamine-6-phosphate [5] = variants of: B1; test: self-cleavage kobs at 10000 uM GlcN6P; higher = faster cleavage; RNA array
Method in brief: as §1

glucosamine-6-phosphate [6] = variants of: B1; test: self-cleavage kobs at 40 uM GlcN6P; higher = faster cleavage; RNA array
Method in brief: as §1

glucosamine-6-phosphate [7] = variants of: B1; test: self-cleavage kobs at 160 uM GlcN6P; higher = faster cleavage; RNA array
Method in brief: as §1

Variant | kcat (glucosamine-6-phosphate [1]) [s⁻¹] | KM (glucosamine-6-phosphate [2]) [µM] | self-cleavage kobs at 640 uM GlcN6P (glucosamine-6-phosphate [3]) [s⁻¹] | self-cleavage kobs at 2500 uM GlcN6P (glucosamine-6-phosphate [4]) [s⁻¹] | self-cleavage kobs at 10000 uM GlcN6P (glucosamine-6-phosphate [5]) [s⁻¹] | self-cleavage kobs at 40 uM GlcN6P (glucosamine-6-phosphate [6]) [s⁻¹] | self-cleavage kobs at 160 uM GlcN6P (glucosamine-6-phosphate [7]) [s⁻¹]
U46A U56A | 0.001 ± 0.00013 | 1800 ± 490 | 0.000307 ± 7e-05 | 0.000533 ± 0.00015 | 0.000853 ± 0.00014 | – | –
G44A U56A | 0.00026 ± 6.2e-06 | 2650 ± 150 | 4.93e-05 ± 1.6e-05 | 0.00013 ± 2.6e-05 | 0.000205 ± 2.9e-05 | – | –
A42G U45A | 0.0167 ± 0.0051 | 303 ± 130 | – | – | – | 0.00181 ± 0.00058 | 0.00634 ± 0.0022
A48G G63A | < 1e-05 | – | – | – | – | < 1e-05 | < 1e-05
A48U C67U | 0.00022 ± 1.3e-05 | 1890 ± 230 | 5.32e-05 ± 7.6e-06 | 0.000135 ± 1.7e-05 | 0.00018 ± 2e-05 | – | –
U47A G66U | 0.00545 ± 0.0009 | 1780 ± 480 | 0.00141 ± 0.00028 | 0.00244 ± 0.00069 | 0.00506 ± 0.00076 | 0.00013 ± 2.5e-05 | –
U45G U56G | 0.00528 ± 0.00075 | 2490 ± 520 | 0.0011 ± 0.00017 | 0.0033 ± 0.00052 | 0.00403 ± 0.00047 | 8.78e-05 ± 1.3e-05 | 0.000245 ± 6.5e-05
A42U U47A | 0.00012 ± 2.9e-06 | 1210 ± 91 | 4.11e-05 ± 1.2e-05 | 8.23e-05 ± 1.3e-05 | 0.000106 ± 1.7e-05 | – | –
G44C A53C | 6.93e-05 ± 2.5e-06 | 2650 ± 300 | – | 3.4e-05 ± 1e-05 | 5.46e-05 ± 9.3e-06 | – | –
G40C G41U | 8.06e-05 ± 2.1e-05 | – | – | 8.04e-05 ± 1.1e-05 | 6.61e-05 ± 7.9e-06 | – | –
G40C C70G | 0.000147 ± 2.2e-05 | 973 ± 420 | 5.48e-05 ± 8.7e-06 | 0.000163 ± 2.9e-05 | 0.000128 ± 1.3e-05 | – | –
G41U U46A | 0.000481 ± 0.0001 | 2400 ± 860 | 9.28e-05 ± 1.2e-05 | 0.000324 ± 5.4e-05 | 0.000362 ± 5.7e-05 | – | 4.83e-05 ± 1.9e-05
A48U C50G G59U G66U | 1.53e-05 ± 4.3e-06 | – | – | – | – | – | < 1e-05
G41C U55A | 8.46e-05 ± 5e-06 | 1280 ± 280 | – | 5.87e-05 ± 2e-05 | 7.36e-05 ± 2e-05 | < 1e-05 | –
G41C A64G | 0.000146 ± 1.2e-05 | 1760 ± 510 | 3.48e-05 ± 8.4e-06 | 0.000107 ± 1.8e-05 | 0.000122 ± 8.8e-06 | – | –
U45C A53G | 0.00416 ± 0.0017 | – | 0.000905 ± 0.00016 | 0.00188 ± 0.00042 | 0.00291 ± 0.00074 | – | 0.000134 ± 4.9e-05
